From patent US20220089730A1 (IMAGINAB, published 2022)
Positions count from the first letter of the chain named. Each block holds one binder with its values, some of them ahead of it.

Experiments:
[1] = biological target: T1, PSMA (Prostate-Specific Membrane Antigen), glutamate carboxypeptidase 2 (Homo sapiens, UniProt Q04609 1-750); assay: flow cytometry (FACS) on C4-2 XCL cells
T1 construct: also called FOLH1; target antigen expressed on LNCaP-AR cells

[2] = biological target: T1, PSMA (Prostate-Specific Membrane …); assay: flow cytometry (FACS) on LNCaP-AR cells and on C4-2 XCL cells

T1 sequence (Q04609 whole entry): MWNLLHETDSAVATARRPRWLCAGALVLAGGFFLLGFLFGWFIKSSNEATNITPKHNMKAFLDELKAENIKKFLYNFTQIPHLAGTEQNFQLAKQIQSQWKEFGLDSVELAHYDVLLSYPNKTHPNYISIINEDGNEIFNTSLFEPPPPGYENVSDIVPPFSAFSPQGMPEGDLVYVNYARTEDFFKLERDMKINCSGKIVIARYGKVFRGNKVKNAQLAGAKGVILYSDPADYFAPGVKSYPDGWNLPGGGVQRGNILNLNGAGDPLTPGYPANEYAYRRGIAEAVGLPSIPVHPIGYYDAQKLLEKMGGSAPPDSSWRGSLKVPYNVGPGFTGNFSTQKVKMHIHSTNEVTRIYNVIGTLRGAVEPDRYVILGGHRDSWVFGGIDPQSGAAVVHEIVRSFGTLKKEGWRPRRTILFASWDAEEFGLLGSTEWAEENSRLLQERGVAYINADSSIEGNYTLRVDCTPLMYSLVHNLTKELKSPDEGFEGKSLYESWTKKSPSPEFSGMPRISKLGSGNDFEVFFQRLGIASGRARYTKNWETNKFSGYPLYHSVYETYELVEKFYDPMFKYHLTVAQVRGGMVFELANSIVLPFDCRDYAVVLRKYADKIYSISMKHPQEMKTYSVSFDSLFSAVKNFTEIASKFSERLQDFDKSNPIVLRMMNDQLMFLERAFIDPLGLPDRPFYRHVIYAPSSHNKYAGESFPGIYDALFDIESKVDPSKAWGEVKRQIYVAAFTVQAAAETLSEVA

binding result [1]: binds
B1: IAB2M γ2 EH1 (other)
chain: DIVMTQSPSSLSASVGDRVTITCKASQDVGTAVDWYQQKPGKAPKLLIYWASTRHTGVPDRFTGSGSGTDFTLTISSLQPEDFADYFCQQYNSYPLTFGGGTKLEIKGSTSGGGSGGGSGGGGSSEVQLVQSGAEVKKPGASVKISCKTSGYTFTEYTIHWVKQASGKGLEWIGNINPNNGGTTYNQKFEDRATLTVDKSTSTAYMELSSLRSEDTAVYYCAAGWNFDYWGQGTTVTVSSERKCCVECPPCPGGGSSGGGSGGQPREPQVYTLPPSREEMTKNQVSLTCLVKGFYPSDIAVEWESNGQPENNYKTTPPMLDSDGSFFLYSKLTVDKSRWQQGNVFSCSVMHEALHNHYTQKSLSLSPGK
notes: Anti-PSMA minibody: homodimer of scFv-hinge-CH3

binding result [2]: binds
B2: IAB2M γ1 EH1 (other)
chain: DIVMTQSPSSLSASVGDRVTITCKASQDVGTAVDWYQQKPGKAPKLLIYWASTRHTGVPDRFTGSGSGTDFTLTISSLQPEDFADYFCQQYNSYPLTFGGGTKLEIKGSTSGGGSGGGSGGGGSSEVQLVQSGAEVKKPGASVKISCKTSGYTFTEYTIHWVKQASGKGLEWIGNINPNNGGTTYNQKFEDRATLTVDKSTSTAYMELSSLRSEDTAVYYCAAGWNFDYWGQGTTVTVSSEPKSCDKTHTCPPCGGGSSGGGSGGQPREPQVYTLPPSRDELTKNQVSLTCLVKGFYPSDIAVEWESNGQPENNYKTTPPVLDSDGSFFLYSKLTVDKSRWQQGNVFSCSVMHEALHNHYTQKSLSLSPGK
notes: as for B1

binding result [2]: binds
B3: IAB2M γ1 EH2 (other)
chain: B2 chain with C245S
notes: as for B1
